Columns and labels:
Saccharomyces cerevisiae [1] = experiment: protein stability index of tFT-peptide fusion in deletion strain of DAS1 (PSI (0-1 scale)); higher = more stable (slower turnover)
Protocol: (§1)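 MPS profiling in S. cerevisiae of two library types built from selected 12-aa C-degron peptides (IN1, IN2, LN1, LN3, VN2, R1-R5, W1-W3, Atg1 and Rpa12 C-termini): saturation mutagenesis libraries and C-terminal +1 capping libraries (13 aa). Each peptide is fused to the C-terminus of a sfGFP-mCherry timer, after a GGGS linker. Cells are FACS-sorted into 8 mCherry/sfGFP bins and sequenced. PSI runs from 0 (unstable) to 1 (stable), measured once in wild type and in the das1Δ or doa10Δ background.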

Saccharomyces cerevisiae [2] = experiment: protein stability index of tFT-peptide fusion in wild type (PSI (0-1 scale)); higher = more stable (slower turnover); settings: genetic background: wild type
Protocol: as §1
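Throughout, for protein stability index of tFT-peptide fusion in deletion strain of DAS1: PSI is a weighted mean of each variant's read distribution over the sorted stability bins, computed only for variants having over 10 reads in total.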
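Throughout, for protein stability index of tFT-peptide fusion in wild type: PSI derived as read-weighted mean over the 8 sorting bins, only variants exceeding 10 total reads kept, mCherry placed adjacent to the peptide and sfGFP distal.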

Sequence	protein stability index (Saccharomyces cerevisiae [1])	protein stability index (Saccharomyces cerevisiae [2])
ARWRVGLWTGAS	0.677	0.664
ARWRVGWWRGAS	0.701	0.405
ARWRVWLWRGAS	0.711	0.341
ARWVVGLWRGAS	0.694	0.39
ARWYVGLWRGAS	0.696	0.469
CCSCGYKFRTNN	0.681	0.226
CSLAASFWRVVG	0.69	0.125
CTACGYKFRTNN	0.676	0.259
CTDCGYKFRTNN	0.662	0.254
CTHCGYKFRTNN	0.709	0.264
CTSCGGKFRTNN	0.675	0.61
CTSCGYAFRTNN	0.697	0.226
CTSCGYKFFTNN	0.727	0.347
CTSCGYKFNTNN	0.722	0.42
CTSCGYKFRFNN	0.699	0.303
CTSCGYKFRRNN	0.703	0.49
CTSCGYKFRTEN	0.725	0.45
CTSCGYKFRTIN	0.698	0.148
CTSCGYKFRTKN	0.702	0.631
CTSCGYKFRTNA	0.697	0.266
CTSCGYKFRTND	0.695	0.7
CTSCGYKFRTNN	0.691	0.247
CTSCGYKFRTNNF	0.712	0.711

Sequence	protein stability index (Saccharomyces cerevisiae [1])	protein stability index (Saccharomyces cerevisiae [2])
CTSCGYKFRTNNG	0.69	0.683
CTSCGYKFRTNS	0.697	0.465
CTSCGYKFRTTN	0.699	0.191
CTSCGYKFRTYN	0.696	0.31
CTSCGYKLRTNN	0.678	0.471
CTSCGYKQRTNN	0.688	0.538
CTSCGYKRRTNN	0.683	0.477
CTSDGYKFRTNN	0.669	0.517
CTSLGYKFRTNN	0.689	0.17
CTSRGYKFRTNN	0.685	0.215
CYSCGYKFRTNN	0.708	0.168
DKHKKGQKQKIN	0.602	0.113
FMMRWTFRYWVN	0.359	0.0399
FQMRWTFRYWVN	0.46	0.0681
FRMRWTFRYWVN	0.584	0.0353
FSKRWTFRYWVN	0.596	0.0512
FSMEWTFRYWVN	0.425	0.112
FSMRNTFRYWVN	0.578	0.0817
FSMRSTFRYWVN	0.608	0.096
FSMRWCFRYWVN	0.554	0.0796
FSMRWEFRYWVN	0.471	0.0711
FSMRWNFRYWVN	0.536	0.0584
FSMRWTFDYWVN	0.577	0.618

Sequence	protein stability index (Saccharomyces cerevisiae [1])	protein stability index (Saccharomyces cerevisiae [2])
FSMRWTFHYWVN	0.456	0.048
FSMRWTFREWVN	0.57	0.0594
FSMRWTFRRWVN	0.623	0.11
FSMRWTFRWWVN	0.462	0.0591
FSMRWTFRYLVN	0.479	0.0662
FSMRWTFRYWNN	0.549	0.158
FSMRWTFRYWVM	0.482	0.136
FSMRWTFRYWVNP	0.544	0.533
FSMRWTFRYWVR	0.446	0.416
FSMRWTFWYWVN	0.416	0.0405
FSMRWTNRYWVN	0.592	0.0731
FSMRWTRRYWVN	0.585	0.101
FSMSWTFRYWVN	0.493	0.0567
GTSCGYKFRTNN	0.659	0.261
HSLAASFWRVVG	0.691	0.121
KKHKAGQKQKIN	0.579	0.0948
KKHKKGCKQKIN	0.598	0.0767
KKHKKGDKQKIN	0.599	0.137
KKHKKGLKQKIN	0.596	0.0663
KKHKKGQKPKIN	0.626	0.574
KKHKKGQKQKDN	0.638	0.607
KKHKKGQKQKINL	0.663	0.652
KKHKKGQKQKKN	0.843	0.577

Sequence	protein stability index (Saccharomyces cerevisiae [1])	protein stability index (Saccharomyces cerevisiae [2])
KKHKKGQKQKMN	0.533	0.0838
KKHKKGQKQKNN	0.643	0.476
KKHKKGQKQSIN	0.577	0.673
KKHKKTQKQKIN	0.677	0.0737
KKHKVGQKQKIN	0.567	0.0595
KKHPKGQKQKIN	0.684	0.14
KKHSKGQKQKIN	0.576	0.0645
KKILRQKMNHQN	0.688	0.159
KKPKKGQKQKIN	0.591	0.174
KKSKKGQKQKIN	0.576	0.0679
KKTKKGQKQKIN	0.583	0.113
KKVKKGQKQKIN	0.631	0.122
KPHKKGQKQKIN	0.625	0.0908
KQHKKGQKQKIN	0.621	0.104
KTHKKGQKQKIN	0.684	0.0924
LCILRQKMNHQN	0.655	0.115
LDILRQKMNHQN	0.707	0.121
LEILRQKMNHQN	0.672	0.161
LFVYLSCVACIN	0.0251	0.0334
LKCLRQKMNHQN	0.682	0.205
